Assay results as given in patent US12551573B2, “Compositions and methods for the targeting of PCSK9” (Scribe Therapeutics Inc., priority 2022, dated 2026).

How the values were obtained:
6.7/6.8 target dsDNA [1] = assay: In vitro cleavage assay of CasX 491 RNPs: cleavage rate (kcleave); format: biochemical; conditions: CasX RNP, 20-fold excess RNP
Method: (§1) Double-stranded DNA (dsDNA) targets were formed by mixing the oligos in a 1:1 ratio in 1× cleavage buffer (20 mM Tris HCl PH 7.5, 150 mM NaCl, 1 mM TCEP, 5% glycerol, 10 mM MgCl2), following by heating to 95° C. for 10 minutes, and then allowing the solution to cool to room temperature. CasX ribonucleoproteins (RNPs) were reconstituted with CasX 491 and the indicated gRNAs at a final concentration of 1 μM with 1.2-fold excess of the indicated gRNA in 1x cleavage buffer. RNPs were allowed to form at 37° C. for 10 minutes.
The effects of various structural and chemical modifications to the gRNA scaffold on the cleavage rate of CasX 491 RNPs were determined. Cleavage reactions were prepared with final RNP concentrations of 200 nM and final target concentrations of 10 nM, and reactions were carried out at 16° C. and initiated by the addition of the labeled target DNA substrate (Table 27). Aliquots of reactions were taken at 0.25, 0.5, 1, 2, 5, and 10 minutes and quenched by adding an equal volume of 95% formamide with 20 mM EDTA. Samples were denatured at 95° C. for 10 minutes and resolved on a 10% urea-PAGE gel. Gels were imaged on a Typhoon™ laser-scanner platform and quantified using ImageQuant™ TL 8.2 image analysis software (Cytiva™). The apparent first-order rate constant of non-target strand cleavage (kcleave−) was determined for each CasX:gRNA combination.

6.7/6.8 target dsDNA [2] = assay: In vitro cleavage assay of CasX 491 RNPs: competent (active) fraction; format: biochemical; conditions: spacer 6.7 or 6.8, v1; equimolar RNP and DNA target
Method: as §1
To determine the competent fraction formed by each gRNA, cleavage reactions were prepared with final RNP concentrations of 100 nM and final target concentrations of 100 nM. Reactions were carried out at 37° C. and initiated by the addition of the labeled target substrate (Table 27). Aliquots were taken at 0.5, 1, 2, 5, 10, and 30 minutes and quenched by adding an equal volume of 95% formamide with 25 mM EDTA. Samples were denatured by heating at 95° C. for 10 minutes and resolved on a 10% urea-PAGE gel. Gels were imaged and quantified as above. […] The plateau of each fit was determined and reported as the active fraction for each RNP in Table 30.

human PCSK9 locus [3] = assay: Editing (indel rate by NGS) at the PCSK9 locus in HepG2 cells transfected with CasX 491 mRNA and gRNA; format: cell-based; conditions: CasX 491 mRNA + v1 gRNAs, spacers 6.7 and 6.8, 28 hours
Method: (§2) Editing at the PCSK9 locus and consequential effects on secreted PCSK9 levels were assessed for conditions using CasX 491 mRNA co-delivered with a PCSK9-targeting gRNA with scaffold variant 174 compared to conditions where a PCSK9-targeting gRNA with scaffold variant 316 was used. 100 ng of in vitro transcribed mRNA coding for CasX 491 with a P2A and mScarlet fluorescent protein was transfected into HepG2 cells with version 1 (v1) of gRNAs 174-6.7, 174-6.8, 316-6.7, and 316-6.8 (see Table 26) using Lipofectamine™. After a media change, the following were harvested at 28 hours post-transfection: 1) transfected cells were harvested for editing assessment at the PCSK9 locus by NGS (next generation sequencing); and 2) media supernatant was harvested to measure secreted PCSK9 protein levels by ELISA. For editing analysis by NGS, amplicons were amplified from 200 ng of extracted gDNA with a set of primers targeting the PCSK9 locus and processed by NGS (described below). Secreted PCSK9 levels in the media supernatant were also analyzed using a fluorescence resonance energy transfer-based immunoassay from CISBio following the manufacturer's instructions. […]
(§3) V1 through v6 variants of chemically-modified PCSK9-targeting gRNAs (Table 26) were assessed for their effects on editing potency and consequential effects on secreted PCSK9 levels in vitro. […]

human PCSK9 locus [4] = assay: Secreted PCSK9 levels in HepG2 cells transfected with CasX 491 mRNA and gRNA; format: cell-based; conditions: CasX 491 mRNA + v1 gRNAs, spacers 6.7 and 6.8, 28 hours
Method: as §2, §3

human B2M locus = assay: Editing (indel rate by NGS) at the B2M locus in HepG2 cells treated with LNPs; format: cell-based; conditions: LNPs with CasX 491 mRNA + gRNA spacer 7.9 (v1), highest dose of 250 ng
Method: ˜50,000 HepG2 cells, cultured in DMEM/F-12 media containing 10% FBS and 1% PenStrep, were seeded per well in a 96-well plate. The next day, seeded cells were treated with varying concentrations of LNPs, which were prepared in six 2-fold serial dilutions starting at 250 ng. These LNPs were formulated to encapsulate CasX 491 mRNA and a B2M-targeting gRNA incorporating either scaffold variant 174 or 316 with spacer 7.9 (v1; see Table 26). […] Briefly, for editing assessment, amplicons were amplified from 200 ng of extracted gDNA with primers targeting the human B2M locus and processed by NGS using similar methods as described in Example 7.

B2M locus [5] = assay: B2M knockout (HLA flow cytometry) in HEK293 cells transduced with AAV; format: cell-based, human; conditions: spacer 7.37, MOI 1E4, 3E3, 1E3 vg/cell, 5 days
B2M locus [6] = assay: B2M repression (HLA-negative cells by flow cytometry) in HEK293T cells transfected with LTRP plasmids; format: cell-based, human; conditions: for Mean % HLA-negative cells: HEK293T cells, B2M-targeting spacer 7.37
Method: Each construct was tested in triplicate.
Each construct was tested in triplicate. […] Cells were harvested for repression analysis at day 5, day 12, day 21, and day 51 post-transfection.
Each construct was tested in triplicate. […] Cells were harvested for repression analysis at day 8, day 13, day 20, and day 27 post-transfection. […] In addition, cells were also harvested on day 5 post-transfection for gDNA extraction for bisulfite sequencing to assess off-target methylation at the non-targeted VEGFA locus, which was performed using similar methods as described in Example 13.
HEK293T cells were transfected as described in Example 14, except that the cells were transfected with 50 ng each of a plasmid encoding the LTRP construct and a plasmid encoding the gRNA. […] 72 of the 95 top repressor domains were assessed together in one experiment where B2M expression was measured at 7, 14, 19, and 26 days after transfection, and the data shown in Tables 57-60.

HBEGF locus = format: cell-based, human; conditions: high-throughput screen of dXR repression of the HBEGF gene; change in abundance of each domain in the library before and after diphtheria toxin selection
HBEGF gene = format: cell-based, human; conditions: HEK293T; HBEGF-targeting spacer; toxin 0-2000 ng/mL
B2M locus [7] = assay: B2M reactivation by 5-azadC (DNMT1 inhibitor) in transfected HEK293T cells; conditions: B2M-targeting gRNA, 5-azadC 0-20 uM
Method: These transfected HEK293T cells were subsequently re-seeded at ˜30,000 cells well of a 96-well plate and were treated with 5-aza-2′-deoxycytidine (5-azadC), a DNMT1 inhibitor, at concentrations ranging from 0 μM to 20 μM. […] Treatments for each dose of 5-azadC for each experimental condition were performed in triplicates.

B1: scaffold 316: chimeric gRNA scaffold, SEQ ID NO: 1746 (nucleic acid)
guide: ACUGGCGCUUCUAUCUGAUUACUCUGAGCGCCAUCACCAGCGACUAUGUCGUAGUGGGUAAAGCUCCCUCUUCGGAGGGAGCAUCAGAG
modifications: listed as RNA, chemistry not fully specified
cleavage rate vs scaffold 174 (6.7/6.8 target dsDNA [1]; spacer 6.7, v1): marginally faster cleavage | cleavage rate vs scaffold 174 (6.7/6.8 target dsDNA [1]; spacer 6.8, v1): nearly twice as quickly | active fraction of CasX RNPs, higher than scaffold 174 (6.7/6.8 target dsDNA [2]): 25-30% | increase in editing rate at the PCSK9 locus over scaffold 174 (human PCSK9 locus [3]): ~10 percentage point | reduction of PCSK9 secretion vs scaffold 174 (human PCSK9 locus [4]): more effective reduction of PCSK9 secretion | editing level at the B2M locus vs scaffold 174 (human B2M locus): nearly two-fold higher | editing at the B2M locus vs scaffold 235 (B2M locus [5]): appeared to improve editing at the B2M locus

B2: DOMAIN_29304: one of the nine most effective repressor domains (protein, listed as Peromyscus maniculatus)
chain: VTYNDVHVDITQEEWALMDPSQRNLYKDVMVETYMNLTAIGYNWENLEVEEPCQNPLKHGRHERPHTGEKPYEYNQCGKAFAQP
B2M repression by LTRP5 constructs with enhanced repressor domains (B2M locus [6]; HEK293T, LTRP5 without ADD, scaffold 316 spacer 7.165, days 6/7 to 26/27, vs LTRP5-ZIM3): most effective repressor domains | Log2 (fold change) (HBEGF locus): 4.0496

B3: CasX 491: catalytically-active CasX variant 491 (protein)
chain: QEIKRINKIRRRLVKDSNTKKAGKTGPMKTLLVRVMTPDLRERLENLRKKPENIPQPISNTSRANLNKLLTDYTEMKKAILHVYWEEFQKDPVGLMSRVAQPASKKIDQNKLKPEMDEKGNLTTAGFACSQCGQPLFVYKLEQVSEKGKAYTNYFGRCNVAEHEKLILLAQLKPEKDSDEAVTYSLGKFGQRALDFYSIHVTKESTHPVKPLAQIAGNRYASGPVGKALSDACMGTIASFLSKYQDIIIEHQKVVKGNQKRLESLRELAGKENLEYPSVTLPPQPHTKEGVDAYNEVIARVRMWVNLNLWQKLKLSRDDAKPLLRLKGFPSFPLVERQANEVDWWDMVCNVKKLINEKKEDGKVFWQNLAGYKRQEALRPYLSSEEDRKKGKKFARYQLGDLLLHLEKKHGEDWGKVYDEAWERIDKKVEGLSKHIKLEEERRSEDAQSKAALTDWLRAKASFVIEGLKEADKDEFCRCELKLQKWYGDLRGKPFAIEAENSILDISGFSKQYNCAFIWQKDGVKKLNLYLIINYFKGGKLRFKKIKPEAFEANRFYTVINKKSGEIVPMEVNFNFDDPNLIILPLAFGKRQGREFIWNDLLSLETGSLKLANGRVIEKTLYNRRTRQDEPALFVALTFERREVLDSSNIKPMNLIGVDRGENIPAVIALTDPEGCPLSRFKDSLGNPTHILRIGESYKEKQRTIQAKKEVEQRRAGGYSRKYASKAKNLADDMVRNTARDLLYYAVTQDAMLIFENLSRGFGRQGKRTFMAERQYTRMEDWLTAKLAYEGLSKTYLSKTLAQYTSKTCSNCGFTITSADYDRVLEKLKKTATGWMTTINGKELKVEGQITYYNRYKRQNVVKDLSVELDRLSEESVNNDISSWTKGRSGEALSLLKKRFSHRPVQEKFVCLNCGFETHADEQAALNIARSWLFLRSQEYKKYQTNKTTGNTDKRAFVETWQSFYRKKLKEVWKPAV
modifications: listed as DNA
Mean % HLA-negative cells (B2M locus [6]; 6 days post-transfection): 76.167% | Mean % HLA-negative cells (B2M locus [6]; 13 days post-transfection): 81.167% | Mean % HLA-negative cells (B2M locus [6]; 20 days post-transfection): 83.633% | Mean % HLA-negative cells (B2M locus [6]; 27 days post-transfection): 80.933% | % HLA-negative cells (mean) (B2M locus [6]; HEK293T, 50 days post-transfection, spacer 0.0 (non-targeting)): 0.29% | % HLA-negative cells (mean) (B2M locus [6]; HEK293T, 50 days post-transfection, spacer 7.37 (B2M)): 76.57% | % HLA-negative cells (mean) (B2M locus [6]; HEK293T, 73 days post-transfection, spacer 0.0 (non-targeting)): 0.71% | % HLA-negative cells (mean) (B2M locus [6]; HEK293T, 73 days post-transfection, spacer 7.37 (B2M)): 73.30% | B2M repression (HLA-negative cells) (B2M locus [6]; HEK293T, LTRP #1, #4, #5 plasmids and controls, scaffold 174 spacer 7.37, time course to 73 days): durable silencing of the B2M expression | repression of B2M expression by day 58 (B2M locus [6]; HEK293T, plasmid with B2M-targeting gRNA scaffold 174 spacer 7.37): ~75% | protection from diphtheria toxin (HBEGF gene): protects at all doses | reactivation of the B2M gene upon 5-azadC treatment (B2M locus [7]): did not exhibit reactivation of the B2M gene
